Results published in FireProtDB (doi:10.1016/j.jmb.2003.10.041).

B1: Bacteriorhodopsin, P02945 (parent)
chain: MLELLPTAVEGVSQAQITGRPEWIWLALGTALMGLGTLYFLVKGMGVSDPDAKKFYAITTLVPAIAFTMYLSMLLGYGLTMVPFGGEQNPIYWARYADWLFTTPLLLLDLALLVDADQGTILALVGADGIMIGTGLVGALTKVYSYRFVWWAISTAAMLYILYVLFFGFTSKAESMRPEVASTFKVLRNVTVVLWSAYPVVWLIGSEGAGIVPLNIETLLFMVLDVSAKVGFGLILLRSRAIFGEAEAPEPSAGDGAAATSD

Variants of: B1
Settings: Halobacterium salinarum (strain ATCC 700922 / JCM 11081 / NRC-1); pH 6; 25 °C; SDS; Absorbance; sodium phosphate 10 mM; reversible: yes (90%); structure 2BRD; whole UniProt chain shown

Row | Variant | ddG of mutation (higher = less stable) [kcal/mol]
1 | P63A | -0.1
2 | I65A | 1.4
3 | T60A | 1
4 | K53A | 0.3
5 | L75A | -0.5
6 | Y56A | 1.3
7 | F67A | 1
8 | M73A | 0.8
9 | V62A | -0.7
10 | F55A | 1.6
11 | T59A | 2.2
12 | K54A | 1.6
13 | P50A | 0.2
14 | I58A | 1.9
15 | D49A | 0.9
16 | D51A | 0.5
17 | L61A | 0.1
18 | T68A | 0.1
19 | L74A | -0.7
20 | M69A | -1.4
21 | L71A | -0.3
22 | S72A | -0.1
